Measurements: US20050288217A1 (UNIVERSITY OF NORTH CAROLINA AT CHAPEL HILL, published 2005)

T1: β3 integrin mutant in which the identical region of the β1 integrin was substituted for the 8 amino acid … (UniProt P05106 27-788)
T1 construct: whole, on cells; also called mutant protein; β3 mutant
T1 sequence (looked up): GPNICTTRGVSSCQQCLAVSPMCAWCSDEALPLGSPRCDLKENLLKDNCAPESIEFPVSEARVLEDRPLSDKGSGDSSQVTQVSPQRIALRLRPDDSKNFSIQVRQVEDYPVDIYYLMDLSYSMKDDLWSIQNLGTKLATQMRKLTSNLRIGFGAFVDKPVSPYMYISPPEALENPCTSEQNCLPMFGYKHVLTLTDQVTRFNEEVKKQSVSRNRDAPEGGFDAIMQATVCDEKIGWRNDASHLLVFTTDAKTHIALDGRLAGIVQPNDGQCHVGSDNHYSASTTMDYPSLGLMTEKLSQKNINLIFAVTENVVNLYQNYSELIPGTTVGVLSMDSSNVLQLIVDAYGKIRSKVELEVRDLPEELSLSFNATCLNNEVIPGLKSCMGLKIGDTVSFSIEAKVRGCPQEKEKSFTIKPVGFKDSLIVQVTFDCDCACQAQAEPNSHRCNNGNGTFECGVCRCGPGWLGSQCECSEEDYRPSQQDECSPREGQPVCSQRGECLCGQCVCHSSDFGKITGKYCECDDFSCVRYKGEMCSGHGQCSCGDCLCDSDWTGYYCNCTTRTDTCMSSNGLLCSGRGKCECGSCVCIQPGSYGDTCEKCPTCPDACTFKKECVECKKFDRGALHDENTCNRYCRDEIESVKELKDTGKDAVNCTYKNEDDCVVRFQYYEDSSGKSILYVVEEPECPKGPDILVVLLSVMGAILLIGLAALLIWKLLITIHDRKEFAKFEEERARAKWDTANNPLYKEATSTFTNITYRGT


Molecular target: T1, β3 integrin mutant in which the …
Experiment: binding assay on CHO cells expressing the mutant β3

Binder	binding result
heparin binding epidermal growth factor (ligand, UniProt Q99075 63-148, looked up) DLQEADLDLLRVTLSSKPQALATPNKEEHGKRKKKGKGLGKKRDPCLRKYKDFCIHGECKYVKELRAPSCICHPGYHGERCHGLSL	no binding
vitronectin (ligand, UniProt P04004 20-478, looked up) DQESCKGRCTEGFNVDKKCQCDELCSYYQSCCTDYTAECKPQVTRGDVFTMPEDEYTVYDDGEEKNNATVHEQVGGPSLTSDLQAQSKGNPEQTPVLKPEEEAPAPEVGASKPEGIDSRPETLHPGRPQPPAEEELCSGKPFDAFTDLKNGSLFAFRGQYCYELDEKAVRPGYPKLIRDVWGIEGPIDAAFTRINCQGKTYLFKGSQYWRFEDGVLDPDYPRNISDGFDGIPDNVDAALALPAHSYSGRERVYFFKGKQYWEYQFQHQPSQEECEGSSLSAVFEHFAMMQRDSWEDIFELLFWGRTSAGTRQPQFISRDWHGVPGQVDAAMAGRIYISGMAPRPSLAKKQRFRHRNRKGYRSQRGHSRGRNQNSRRPSRATWLSLFSSEESNLGANNYDDYRMDWLVPATCEPIQSVFFFSGDKYYRVNLRTRRVDTVDPPYPRSIAQYWLGCPAPGHL	no binding

The remaining lines, values ahead:

binding result	Binder
no binding	osteopontin (ligand) not shown
no binding	connective tissue growth factor (ligand, UniProt P29279 27-349, looked up) QNCSGPCRCPDEPAPRCPAGVSLVLDGCGCCRVCAKQLGELCTERDPCDPHKGLFCHFGSPANRKIGVCTAKDGAPCIFGGTVYRSGESFQSSCKYQCTCLDGAVGCMPLCSMDVRLPSPDCPFPRRVKLPGKCCEEWVCDEPKDQTVVGPALAAYRLEDTFGPDPTMIRANCLVQTTEWSACSKTCGMGISTRVTNDNASCRLEKQSRLCMVRPCEADLEENIKKGKKCIRTPKISKPIKFELSGCTSMKTYRAKFCGVCTDGRCCTPHRTTTLPVEFKCPDGEVMKKNMMFIKTCACHYNCPGDNDIFESLYYRKMYGDMA
